Measurements reported in patent US20130315910A1 (Xencor, published 2013).

T1: human FcγRIIb receptor protein (R&D Systems) (human, UniProt P31994 46-217)
T1 construct: Bought protein injected over captured antibody in Biacore; also called CD32b
T1 sequence (looked up): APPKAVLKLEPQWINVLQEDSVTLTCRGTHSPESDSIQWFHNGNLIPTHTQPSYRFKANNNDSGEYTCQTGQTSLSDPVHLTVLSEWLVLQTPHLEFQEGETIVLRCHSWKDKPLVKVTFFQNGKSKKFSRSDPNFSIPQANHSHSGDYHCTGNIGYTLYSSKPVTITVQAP

T2: mFcγRIIb (Mus musculus, UniProt P08101)
T2 construct: extracellular region, C-terminal His- and GST-tag; also called mouse FcγRII
T2 sequence (receptor extracellular region, looked up): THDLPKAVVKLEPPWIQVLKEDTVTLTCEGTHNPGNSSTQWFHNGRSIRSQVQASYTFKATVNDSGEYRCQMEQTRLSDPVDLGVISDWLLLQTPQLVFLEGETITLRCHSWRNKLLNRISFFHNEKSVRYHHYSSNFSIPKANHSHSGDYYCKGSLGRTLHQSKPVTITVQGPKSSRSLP

T3: cynoFcγRIIb (Macaca fascicularis, UniProt A0A140HDP4)
T3 construct: extracellular region, C-terminal His- and GST-tag; also called cynomolgus monkey FcγRIIb
T3 sequence (receptor extracellular region): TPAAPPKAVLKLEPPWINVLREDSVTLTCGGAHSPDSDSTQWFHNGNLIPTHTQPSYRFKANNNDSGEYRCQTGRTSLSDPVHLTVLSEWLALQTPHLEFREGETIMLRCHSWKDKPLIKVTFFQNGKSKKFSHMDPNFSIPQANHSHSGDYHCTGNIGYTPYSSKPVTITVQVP

T4: human FcγRIIa (131R), His- and GST-tagged (human, UniProt P12318 34-217)
T4 construct: Expressed in HEK293T cells, purified by nickel chromatography; also called R131 FcγRIIa; not shown: 6xHis and GST tags of the pTT5 vector
T4 sequence (looked up): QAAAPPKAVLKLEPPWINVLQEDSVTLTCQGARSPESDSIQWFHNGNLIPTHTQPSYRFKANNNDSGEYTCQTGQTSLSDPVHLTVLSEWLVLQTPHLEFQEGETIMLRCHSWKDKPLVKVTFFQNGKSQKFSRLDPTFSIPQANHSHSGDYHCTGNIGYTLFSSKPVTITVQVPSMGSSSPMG

T5: human FcγRIIa (131H), His- and GST-tagged (human, UniProt P12318 34-217)
T5 construct: also called H131 FcγRIIa; HIIa; not shown: 6xHis and GST tags of the pTT5 vector
T5 sequence (looked up): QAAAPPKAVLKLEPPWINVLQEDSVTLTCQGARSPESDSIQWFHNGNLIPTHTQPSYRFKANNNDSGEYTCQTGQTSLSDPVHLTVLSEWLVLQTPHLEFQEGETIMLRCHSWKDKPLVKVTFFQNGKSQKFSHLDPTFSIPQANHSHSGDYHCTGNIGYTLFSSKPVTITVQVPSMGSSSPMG


What was measured:
Test in all cases: SPR
[1] = molecular target: T1, human FcγRIIb receptor protein (R&D …)
Description: (§1) Variants were screened for receptor affinity using Biacore™ technology, also referred to as Biacore herein, a surface plasmon resonance (SPR) based technology for studying biomolecular interactions in real time. SPR measurements were performed using a Biacore 3000 instrument (Biacore, Piscataway, N.J.). A protein A/G (Pierce Biotechnology) CM5 biosensor chip (Biacore) was generated using a standard primary amine coupling protocol. All measurements were performed using HBS-EP buffer (10 mM HEPES pH 7.4, 0.15 M NaCl, 3 mM EDTA, 0.005% vol/vol surfactant P20, Biacore). Antibodies at 20 nM or 50 nM in HBS-EP buffer were immobilized on the protein A/G surface and FcγRs were injected. After each cycle, the surface was regenerated by injecting glycine buffer (10 mM, pH 1.5). Data were processed by zeroing time and response before the injection of FcγR and by subtracting appropriate nonspecific signals (response of reference channel and injection of running buffer). Kinetic analyses were performed by global fitting of binding data with a 1:1 Langmuir binding model using BIAevaluation software (Biacore).

mFcγRIIb = molecular target: T2, mFcγRIIb
Description: as §1
(§2) Variant antibodies were tested for their affinity to mouse or cynologous monkey FcγRs using Biacore SPR as described above. Specifically, antibodies were first immobilized on a protein A/G chip to high density, and then followed by injections of the extracellular domain of the mouse or cynologous monkey FcγR of interest. Both association and dissociation phases were tracked in real time using the Biacore technology.

cynoFcγRIIb = molecular target: T3, cynoFcγRIIb
Description: as §1, §2

[2] = molecular target: T4, human FcγRIIa (131R), His- and …
Description: as §1

[3] = molecular target: T6, human FcγRI receptor protein (R&D Systems) (human, UniProt P12314 16-288)
T6 construct: also called soluble FcγRI; solFcγRI
Description: as §1

[4] = molecular target: T5, human FcγRIIa (131H), His- and …
Description: as §1

T6 sequence (P12314 16-288 limits assumed): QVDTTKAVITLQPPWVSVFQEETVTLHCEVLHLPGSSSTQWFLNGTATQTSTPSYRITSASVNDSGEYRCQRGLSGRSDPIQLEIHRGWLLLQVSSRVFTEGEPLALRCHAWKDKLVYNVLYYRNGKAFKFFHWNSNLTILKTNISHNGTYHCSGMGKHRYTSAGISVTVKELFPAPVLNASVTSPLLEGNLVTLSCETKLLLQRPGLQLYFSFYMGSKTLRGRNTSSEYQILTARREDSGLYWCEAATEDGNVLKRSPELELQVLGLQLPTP

| Binder | Fold vs WT IgG1 [1] [fold] | Kd [1] [nM] | Fold vs WT IgG1 (Kd) (mFcγRIIb) [fold] | Fold vs WT IgG1 (Kd) (cynoFcγRIIb) [fold] | Fold vs WT IgG1 [2] [fold] | Kd [2] [µM] | binding result [1] | binding result [2] | Kd [3] [nM] | Kd [4] [nM] |
| --- | --- | --- | --- | --- | --- | --- | --- | --- | --- | --- |
| H268D/L328F/I332E (antibody, human IgG1, kappa, HuAM4G7 anti-CD19 IgG1 (m1) with these Fc substitutions, EU index; copies: 2 + 2) heavy: EVQLVESGGGLVKPGGSLKLSCAASGYTFTSYVMHWVRQAPGKGLEWIGYINPYNDGTKYNEKFQGRVTISSDKSISTAYMELSSLRSEDTAMYYCARGTYYYGTRVFDYWGQGTLVTVSSASTKGPSVFPLAPSSKSTSGGTAALGCLVKDYFPEPVTVSWNSGALTSGVHTFPAVLQSSGLYSLSSVVTVPSSSLGTQTYICNVNHKPSNTKVDKKVEPKSCDKTHTCPPCPAPELLGGPSVFLFPPKPKDTLMISRTPEVTCVVVDVSDEDPEVKFNWYVDGVEVHNAKTKPREEQYNSTYRVVSVLTVLHQDWLNGKEYKCKVSNKAFPAPEEKTISKAKGQPREPQVYTLPPSREEMTKNQVSLTCLVKGFYPSDIAVEWESNGQPENNYKTTPPVLDSDGSFFLYSKLTVDKSRWQQGNVFSCSVMHEALHNHYTQKSLSLSPGK light: DIVMTQSPATLSLSPGERATLSCRSSKSLQNVNGNTYLYWFQQKPGQSPQLLIYRMSNLNSGVPDRFSGSGSGTEFTLTISSLEPEDFAVYYCMQHLEYPITFGAGTKLEIKRTVAAPSVFIFPPSDEQLKSGTASVVCLLNNFYPREAKVQWKVDNALQSGNSQESVTEQDSKDSTYSLSSTLTLSKADYEKHKVYACEVTHQGLSSPVTKSFNRGEC | 12.3 | 119 | 1.48 | 4.88 |  |  |  |  |  |  |
| H268E/L328Y/I332E (antibody, human IgG1, kappa, HuAM4G7 anti-CD19 IgG1 (m1) with these Fc substitutions, EU index; copies: 2 + 2) heavy: EVQLVESGGGLVKPGGSLKLSCAASGYTFTSYVMHWVRQAPGKGLEWIGYINPYNDGTKYNEKFQGRVTISSDKSISTAYMELSSLRSEDTAMYYCARGTYYYGTRVFDYWGQGTLVTVSSASTKGPSVFPLAPSSKSTSGGTAALGCLVKDYFPEPVTVSWNSGALTSGVHTFPAVLQSSGLYSLSSVVTVPSSSLGTQTYICNVNHKPSNTKVDKKVEPKSCDKTHTCPPCPAPELLGGPSVFLFPPKPKDTLMISRTPEVTCVVVDVSEEDPEVKFNWYVDGVEVHNAKTKPREEQYNSTYRVVSVLTVLHQDWLNGKEYKCKVSNKAYPAPEEKTISKAKGQPREPQVYTLPPSREEMTKNQVSLTCLVKGFYPSDIAVEWESNGQPENNYKTTPPVLDSDGSFFLYSKLTVDKSRWQQGNVFSCSVMHEALHNHYTQKSLSLSPGK light: DIVMTQSPATLSLSPGERATLSCRSSKSLQNVNGNTYLYWFQQKPGQSPQLLIYRMSNLNSGVPDRFSGSGSGTEFTLTISSLEPEDFAVYYCMQHLEYPITFGAGTKLEIKRTVAAPSVFIFPPSDEQLKSGTASVVCLLNNFYPREAKVQWKVDNALQSGNSQESVTEQDSKDSTYSLSSTLTLSKADYEKHKVYACEVTHQGLSSPVTKSFNRGEC | 8.53 | 172 | 1.5 | 4.16 |  |  |  |  |  |  |
| L234Y (antibody, human IgG1, kappa, HuAM4G7 anti-CD19 IgG1 (m1) with this Fc substitution, EU index; copies: 2 + 2) heavy: not shown light: DIVMTQSPATLSLSPGERATLSCRSSKSLQNVNGNTYLYWFQQKPGQSPQLLIYRMSNLNSGVPDRFSGSGSGTEFTLTISSLEPEDFAVYYCMQHLEYPITFGAGTKLEIKRTVAAPSVFIFPPSDEQLKSGTASVVCLLNNFYPREAKVQWKVDNALQSGNSQESVTEQDSKDSTYSLSSTLTLSKADYEKHKVYACEVTHQGLSSPVTKSFNRGEC | 0.0237 | 61900 |  | 1.01 | 0.0511 | 16.8 |  |  |  |  |
| L235H (antibody, human IgG1, kappa, HuAM4G7 anti-CD19 IgG1 (m1) with this Fc substitution, EU index; copies: 2 + 2) heavy: not shown light: DIVMTQSPATLSLSPGERATLSCRSSKSLQNVNGNTYLYWFQQKPGQSPQLLIYRMSNLNSGVPDRFSGSGSGTEFTLTISSLEPEDFAVYYCMQHLEYPITFGAGTKLEIKRTVAAPSVFIFPPSDEQLKSGTASVVCLLNNFYPREAKVQWKVDNALQSGNSQESVTEQDSKDSTYSLSSTLTLSKADYEKHKVYACEVTHQGLSSPVTKSFNRGEC | 0.734 | 2000 |  | 0.832 | 0.756 | 1.14 |  |  |  |  |
| L235W (antibody, human IgG1, kappa, HuAM4G7 anti-CD19 IgG1 (m1) with this Fc substitution, EU index; copies: 2 + 2) heavy: not shown light: DIVMTQSPATLSLSPGERATLSCRSSKSLQNVNGNTYLYWFQQKPGQSPQLLIYRMSNLNSGVPDRFSGSGSGTEFTLTISSLEPEDFAVYYCMQHLEYPITFGAGTKLEIKRTVAAPSVFIFPPSDEQLKSGTASVVCLLNNFYPREAKVQWKVDNALQSGNSQESVTEQDSKDSTYSLSSTLTLSKADYEKHKVYACEVTHQGLSSPVTKSFNRGEC |  |  |  | 1.44 |  |  | no binding | no binding |  |  |
| S239D/A327D/L328Y (antibody, human IgG1, kappa, HuAM4G7 anti-CD19 IgG1 (m1) with these Fc substitutions, EU index; copies: 2 + 2) heavy: EVQLVESGGGLVKPGGSLKLSCAASGYTFTSYVMHWVRQAPGKGLEWIGYINPYNDGTKYNEKFQGRVTISSDKSISTAYMELSSLRSEDTAMYYCARGTYYYGTRVFDYWGQGTLVTVSSASTKGPSVFPLAPSSKSTSGGTAALGCLVKDYFPEPVTVSWNSGALTSGVHTFPAVLQSSGLYSLSSVVTVPSSSLGTQTYICNVNHKPSNTKVDKKVEPKSCDKTHTCPPCPAPELLGGPDVFLFPPKPKDTLMISRTPEVTCVVVDVSHEDPEVKFNWYVDGVEVHNAKTKPREEQYNSTYRVVSVLTVLHQDWLNGKEYKCKVSNKDYPAPIEKTISKAKGQPREPQVYTLPPSREEMTKNQVSLTCLVKGFYPSDIAVEWESNGQPENNYKTTPPVLDSDGSFFLYSKLTVDKSRWQQGNVFSCSVMHEALHNHYTQKSLSLSPGK light: DIVMTQSPATLSLSPGERATLSCRSSKSLQNVNGNTYLYWFQQKPGQSPQLLIYRMSNLNSGVPDRFSGSGSGTEFTLTISSLEPEDFAVYYCMQHLEYPITFGAGTKLEIKRTVAAPSVFIFPPSDEQLKSGTASVVCLLNNFYPREAKVQWKVDNALQSGNSQESVTEQDSKDSTYSLSSTLTLSKADYEKHKVYACEVTHQGLSSPVTKSFNRGEC | 11.9 | 123 | 45.3 | 1.31 |  |  |  |  |  |  |
| S239D/S267E/H268E (antibody, human IgG1, kappa, HuAM4G7 anti-CD19 IgG1 (m1) with these Fc substitutions, EU index; copies: 2 + 2) heavy: EVQLVESGGGLVKPGGSLKLSCAASGYTFTSYVMHWVRQAPGKGLEWIGYINPYNDGTKYNEKFQGRVTISSDKSISTAYMELSSLRSEDTAMYYCARGTYYYGTRVFDYWGQGTLVTVSSASTKGPSVFPLAPSSKSTSGGTAALGCLVKDYFPEPVTVSWNSGALTSGVHTFPAVLQSSGLYSLSSVVTVPSSSLGTQTYICNVNHKPSNTKVDKKVEPKSCDKTHTCPPCPAPELLGGPDVFLFPPKPKDTLMISRTPEVTCVVVDVEEEDPEVKFNWYVDGVEVHNAKTKPREEQYNSTYRVVSVLTVLHQDWLNGKEYKCKVSNKALPAPIEKTISKAKGQPREPQVYTLPPSREEMTKNQVSLTCLVKGFYPSDIAVEWESNGQPENNYKTTPPVLDSDGSFFLYSKLTVDKSRWQQGNVFSCSVMHEALHNHYTQKSLSLSPGK light: DIVMTQSPATLSLSPGERATLSCRSSKSLQNVNGNTYLYWFQQKPGQSPQLLIYRMSNLNSGVPDRFSGSGSGTEFTLTISSLEPEDFAVYYCMQHLEYPITFGAGTKLEIKRTVAAPSVFIFPPSDEQLKSGTASVVCLLNNFYPREAKVQWKVDNALQSGNSQESVTEQDSKDSTYSLSSTLTLSKADYEKHKVYACEVTHQGLSSPVTKSFNRGEC |  | 6.91 |  |  |  |  |  |  | 0.326 | 817 |
